Consider two substances from patent US6365356B1, “Receptors that regulate cell signaling relating to chemokines” (Cornell Research Foundation, Inc., priority 1999, dated 2002).

Assay type in all cases: cell-based
One assay deals with T1, CXCR4 (Homo sapiens, UniProt P61073).
T1 construct: expressed in transfected cells; host or cells: COS-1 cells, transient DEAE-dextran transfection with pcDNA3.1 encoding CXCR4
Briefly: Luciferase reporter gene assay (protein kinase C-responsive promoter), COS-1 cells expressing CXCR4 but not DARC. The following applies: COS-1 cells expressing CXCR4 alone; luciferase gene controlled by protein kinase C-responsive promoter. As for the experimental part: (§1) A second group of COS-1 cells were made to express DARC, but not CXCR4. A third group of COS-1 cells were made to express CXCR4, but not DARC. Signaling due to stromal cell derived factor 1 (SDF-1) and GRO-α was measured in a reporter gene assay using a luciferase gene controlled by a protein kinase C-responsive promoter.
(§2) Cell Culture and Transfection. COS-1 cells are maintained in Dulbecco's modified eagle's medium with 5% fetal calf serum and are seeded 1 day prior to transfection at 750,000 cells/100 mm dish. Cells are transfected with pcDNA3.1 (Invitrogen) encoding DARC (5 μg DNA/ml) or with pcDNA3.1 encoding CXCR4 (5 μg DNA/ml), or both using the DEAE-dextran method and maintained in Dulbecco's modified Eagle's medium with 10% fetal calf serum for 1 day at which time cells are harvested and seeded into 12-well plates at 100,000 cells/well or 24-well plates at 50,000 cells/well in Dulbecco's modified Eagle's medium with 5% fetal calf serum. Other cell lines, such as HEK-293 or CHO cells, can be stably transfected with DARC or CXCR4, or both.
(§3) Reporter Gene Assays. […] Agonists or agonists plus antagonists are added for four hours and the reporter activity measured. […]
A general note: Reporter assays use an easily measured gene product as a stand-in for the process of interest.

The test system of another assay is DARC. In words: Luciferase reporter gene assay (protein kinase C-responsive promoter), COS-1 cells expressing DARC but not CXCR4. The following applies: COS-1 cells expressing DARC alone; luciferase gene controlled by protein kinase C-responsive promoter. As to the method: as §1, §2, §3
In the next assay the target is T2, DARC and CXCR4 (Homo sapiens, UniProt Q16570).
T2 construct: expressed in transfected cells; host or cells: COS-1 cells co-transfected (DEAE-dextran) with pcDNA3.1 encoding DARC and pcDNA3.1 encoding CXCR4
T2 sequence (Q16570 1-336): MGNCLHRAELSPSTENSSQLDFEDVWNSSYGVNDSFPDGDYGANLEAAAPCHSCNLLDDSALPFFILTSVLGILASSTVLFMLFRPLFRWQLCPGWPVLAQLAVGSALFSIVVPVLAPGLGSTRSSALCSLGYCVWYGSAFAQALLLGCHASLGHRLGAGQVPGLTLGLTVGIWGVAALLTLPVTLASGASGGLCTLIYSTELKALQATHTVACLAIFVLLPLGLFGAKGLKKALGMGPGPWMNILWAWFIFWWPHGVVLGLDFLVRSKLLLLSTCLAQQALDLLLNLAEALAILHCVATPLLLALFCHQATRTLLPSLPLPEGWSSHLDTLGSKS
In words: Luciferase reporter gene assay (protein kinase C-responsive promoter), COS-1 cells co-expressing DARC and CXCR4. The note with it: single chemokine. As to the method: as §1, §2, §3

T1 sequence (P61073 whole entry): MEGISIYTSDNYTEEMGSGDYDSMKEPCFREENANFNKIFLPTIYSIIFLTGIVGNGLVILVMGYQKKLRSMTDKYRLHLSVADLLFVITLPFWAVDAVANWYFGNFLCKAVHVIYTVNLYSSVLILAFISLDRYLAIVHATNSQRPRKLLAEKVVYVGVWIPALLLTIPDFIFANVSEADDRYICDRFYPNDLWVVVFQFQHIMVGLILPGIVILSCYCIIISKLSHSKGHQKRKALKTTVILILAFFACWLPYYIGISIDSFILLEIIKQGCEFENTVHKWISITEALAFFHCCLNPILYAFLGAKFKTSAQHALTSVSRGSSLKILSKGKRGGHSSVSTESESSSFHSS

As to growth-related protein-α [GRO-α], the “Signaling in reporter gene assay via CXCR4” value with CXCR4 is “did not signal”. Moreover, the “Signaling in reporter gene assay via DARC” value with DARC is given as “did not signal”. The “Signaling (gene transcription) in reporter gene assay” value with DARC and CXCR4 is on record as “increase gene transcription”.
For stromal cell derived factor 1 [SDF-1], in the assay with CXCR4, the “Signaling in reporter gene assay via CXCR4” value was “signals weakly”. Besides, the “Signaling in reporter gene assay via DARC” value in the assay with DARC is “does not signal”.
